This note sets out measurements from article PMC4169556, “Isolation of Dihydroflavonol 4-Reductase cDNA Clones from Angelonia x angustifolia and Heterologous Expression as GST Fusion Protein in Escherichia coli” (PLoS ONE, 2014).

Substrate in series [1]: O=C1c2c(O)cc(O)cc2O[C@H](c2cc(O)c(O)c(O)c2)[C@H]1O
The series is described as follows: cells, lysate or membranes. Type of series: biochemical, Angelonia angustifolia. To be noted: NADPH, pH 6.5, 25 °C (standard assay), yeast protein fraction, labelled compound.

Substrate in series [2]: O=C1c2c(O)cc(O)cc2O[C@H](c2ccc(O)c(O)c2)[C@H]1O
Kind of series: cells, lysate or membranes. The format is biochemical, Angelonia angustifolia. The note with it: NADPH, pH 6.5, 25 °C (standard assay), yeast protein fraction, labelled compound.

B1: Ang.DFR2 (Angelonia angustifolia) (protein)
chain: METTATQPPPPSSAAAVPATVCVTGAAGFIGSWLVMKLLQRGYNVRATVRDPGNLKKIKHLTQLPKADTNLTLWKADLMEEASFDEAIEGCQGVFHLATPMEFDSKDPENEVIKPTIEGMMSIIRSCAKAKTVEKVIFTTSAGTLNVEEHQKPFYDETSWSDLDFIYSKKMTGWMYFVSKYLAEKQAVEAAKLNNIEFISIIPPVVVGPFINPAFPPSLVTALSPITGNEAHYTIMKQGQFVHLDDICEAHIFLFEHPKADGRYICSSHDATIYDIARLIRDKWPEYNVPMEFKGIDKDIPVVRFSSKKLTSMGFKFKYSLEDMYRGAIETCREKGLLPYSTHNQSNGEKKESTLQSLEKHSDDQEKVLEKRVNGRLDKQFEEQKKELLPIREEKHTNGSLEKCSDDQAKVLLPLPEEKQTNGSLEKHVMINIKTCE
notes: full-length ORF, 437 residues; pYES2.1/V5-His-TOPO in S. cerevisiae INVSc1, protein fraction, not purified
For B1, the Km stood at 6.5 µM in series [1] and 11 µM in series [2].
